2 molecules from article PMC5352318, “Carcinoma-risk variant of EBNA1 deregulates Epstein-Barr Virus episomal latency” can be followed below.

Usually Kd stands for the constant that tells how readily two partners part at equilibrium.

The target in data set [1] is T1, B95-8 EBNA1 DBD (Epstein-Barr virus (strain B95-8)) (UniProt P03211).
T1 sequence: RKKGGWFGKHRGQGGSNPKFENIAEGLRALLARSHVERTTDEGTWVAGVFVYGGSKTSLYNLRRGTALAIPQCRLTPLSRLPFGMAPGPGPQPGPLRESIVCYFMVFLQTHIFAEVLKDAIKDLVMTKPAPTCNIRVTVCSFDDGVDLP
Description: SPR. Particulars: SPR (Biacore T200, SA chip): 20 mM Tris pH 8.0, 250 mM NaCl, 5 mM beta-mercaptoethanol, 1 mM MgCl2, EBNA1 0-200 nM; temperature not stated. Crystals: 0.2 M …. In general terms: SPR reads the build-up and loss of mass on a sensor chip optically.

Data set [2] deals with B95-8 EBNA1 DBD (Epstein-Barr virus (strain B95-8), UniProt P03211 459-607). The experiment in a line: SPR; 1 mM Mg2+; range given for both proteins, exact value in Fig 2B; SPR (Biacore T200, SA chip): 20 mM Tris pH 8.0, 250 mM NaCl, 5 mM beta-mercaptoethanol, 1 mM MgCl2, EBNA1 0-200 nM; temperature not stated. Crystals: 0.2 M ammonium acetate, 0.15 M Mg acetate, 0.05 M Hepes pH 7.0, 5% PEG 4000. Particulars: protein: recombinant; tags: His6-SUMO tag, cleaved; chain copies: 2; label: 5' biotin; self-complementary 18-mer.

As for “CGATAGCATATGCTTCCCGTTGGGTAACATATGCTATTG (double strand) [DS 3+4 (two EBNA1 dimer sites)]”, the Kd in data set [1] was determined as 11.9 nM.

B1: FR single EBNA1 dimer site (SPR) (dsDNA)
DNA 1: GGGAAGCATATGCTTCCC
DNA 2: GGGAAGCATATGCTTCCC
For the molecule B1, in data set [2], the Kd is approximately 16.5 nM.
